Data published in paper PMC7119934 (Peptide Characterization and Application Protocols, 2007).

Biological target: the molecule itself
Test: SEC

B1: HRN extended (902–950) (peptide)
peptide: QKQIANQFNKAISQIQESLTTTSTALGKLQDVVNQNAQALNTLVKQLSS
- stoichiometry N: 3
